Results published in patent EP4467153A1, “CONSTRAINED PEPTIDE INHIBITORS OF LRRK2-FADD INTERACTIONS” (University of Georgia Research Foundation, Inc., priority 2023, dated 2024).
“Also recorded” adds a separate entry of the source. Positions of bridges follow the written chain, without caps; N, C: chain ends. Non-standard residues stand in square brackets, D forms with d. Primed or numbered codes have the meaning given here. FAM = 5(6)-carboxyfluorescein label; S5 = C=CCCC[C@](C)(N)C(=O)O; PEG3′ = PEG3 spacer

Legend:
[1] = molecular target: T1, LRRK2-FADD PPI (Flag G2019S-LRRK2 and V5-FADD) (Homo sapiens, UniProt Q5S007, G2019S); test: Co-immunoprecipitation of LRRK2-FADD interaction in transfected HEK293T cells; assay type: cell-based
T1 construct: expressed in transfected cells; host or cells: HEK293T
T1 sequence (Q5S007 whole entry G2019S): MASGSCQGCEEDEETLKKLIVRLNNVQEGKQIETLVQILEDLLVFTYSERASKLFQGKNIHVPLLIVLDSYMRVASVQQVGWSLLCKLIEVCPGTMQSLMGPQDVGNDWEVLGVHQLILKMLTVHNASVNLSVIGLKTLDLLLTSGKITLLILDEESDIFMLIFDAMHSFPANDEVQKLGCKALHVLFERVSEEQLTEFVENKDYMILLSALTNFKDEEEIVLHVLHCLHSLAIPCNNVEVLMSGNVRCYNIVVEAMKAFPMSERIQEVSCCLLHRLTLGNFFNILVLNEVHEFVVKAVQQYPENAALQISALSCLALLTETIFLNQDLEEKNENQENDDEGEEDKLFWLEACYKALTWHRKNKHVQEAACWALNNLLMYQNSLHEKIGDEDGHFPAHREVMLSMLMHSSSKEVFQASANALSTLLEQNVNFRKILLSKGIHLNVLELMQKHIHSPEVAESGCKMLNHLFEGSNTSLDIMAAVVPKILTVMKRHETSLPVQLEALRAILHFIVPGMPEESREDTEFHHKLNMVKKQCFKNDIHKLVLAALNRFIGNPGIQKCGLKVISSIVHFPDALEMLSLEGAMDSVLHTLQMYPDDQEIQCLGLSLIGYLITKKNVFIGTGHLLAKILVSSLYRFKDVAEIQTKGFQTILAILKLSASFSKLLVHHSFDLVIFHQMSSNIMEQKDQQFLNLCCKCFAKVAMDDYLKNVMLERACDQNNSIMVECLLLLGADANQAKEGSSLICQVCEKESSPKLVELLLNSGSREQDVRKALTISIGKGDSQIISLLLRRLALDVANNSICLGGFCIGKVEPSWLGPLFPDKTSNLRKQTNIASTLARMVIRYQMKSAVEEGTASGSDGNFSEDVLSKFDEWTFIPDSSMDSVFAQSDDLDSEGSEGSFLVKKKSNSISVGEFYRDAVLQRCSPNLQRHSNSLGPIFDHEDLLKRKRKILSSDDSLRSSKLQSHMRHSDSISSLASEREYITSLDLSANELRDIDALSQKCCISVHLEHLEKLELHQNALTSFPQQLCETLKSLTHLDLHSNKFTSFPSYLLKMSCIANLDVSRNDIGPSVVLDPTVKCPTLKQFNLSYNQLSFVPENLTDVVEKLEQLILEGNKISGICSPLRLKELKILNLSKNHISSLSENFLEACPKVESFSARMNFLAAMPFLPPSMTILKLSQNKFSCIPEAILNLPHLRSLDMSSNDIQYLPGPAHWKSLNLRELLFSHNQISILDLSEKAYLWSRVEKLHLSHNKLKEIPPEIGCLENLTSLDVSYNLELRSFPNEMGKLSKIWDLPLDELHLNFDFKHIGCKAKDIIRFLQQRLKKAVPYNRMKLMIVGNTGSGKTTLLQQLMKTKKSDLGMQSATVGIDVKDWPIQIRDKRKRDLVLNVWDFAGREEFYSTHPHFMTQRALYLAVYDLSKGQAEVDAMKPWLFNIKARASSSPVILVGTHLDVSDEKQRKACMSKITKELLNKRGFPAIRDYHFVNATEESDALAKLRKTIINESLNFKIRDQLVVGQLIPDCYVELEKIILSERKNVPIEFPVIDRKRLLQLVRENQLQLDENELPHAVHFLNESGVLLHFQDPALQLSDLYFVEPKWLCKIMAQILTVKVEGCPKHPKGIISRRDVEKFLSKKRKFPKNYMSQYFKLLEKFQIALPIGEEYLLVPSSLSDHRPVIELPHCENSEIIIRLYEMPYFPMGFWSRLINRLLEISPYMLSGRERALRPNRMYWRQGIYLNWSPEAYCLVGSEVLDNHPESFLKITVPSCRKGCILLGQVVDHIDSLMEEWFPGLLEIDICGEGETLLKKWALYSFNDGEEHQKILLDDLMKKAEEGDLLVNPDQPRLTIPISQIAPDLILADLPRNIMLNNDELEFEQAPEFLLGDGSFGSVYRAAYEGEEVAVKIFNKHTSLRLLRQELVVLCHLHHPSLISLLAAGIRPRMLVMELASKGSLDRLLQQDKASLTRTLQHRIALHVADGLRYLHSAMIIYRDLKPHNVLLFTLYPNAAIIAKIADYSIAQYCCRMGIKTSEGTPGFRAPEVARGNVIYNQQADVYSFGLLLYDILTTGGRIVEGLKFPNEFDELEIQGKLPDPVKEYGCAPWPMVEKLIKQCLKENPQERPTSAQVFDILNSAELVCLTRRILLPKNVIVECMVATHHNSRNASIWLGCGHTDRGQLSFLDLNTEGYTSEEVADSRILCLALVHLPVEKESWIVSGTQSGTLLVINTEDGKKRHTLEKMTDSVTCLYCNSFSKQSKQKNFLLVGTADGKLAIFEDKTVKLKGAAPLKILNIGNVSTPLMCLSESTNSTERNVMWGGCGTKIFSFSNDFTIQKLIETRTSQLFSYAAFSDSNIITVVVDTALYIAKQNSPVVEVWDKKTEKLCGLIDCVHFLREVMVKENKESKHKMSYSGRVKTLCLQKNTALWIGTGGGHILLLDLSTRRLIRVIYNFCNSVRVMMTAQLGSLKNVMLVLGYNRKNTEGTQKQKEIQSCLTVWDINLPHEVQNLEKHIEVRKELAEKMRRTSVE
Description: It was then assessed whether this peptide library (FARM1-FARM5) could disrupt the interaction between over-expressed Flag G2019S-LRRK2 and V5-FADD by co-immunoprecipitation. Flag-LRRK2 was purified on anti-Flag resin and the eluate as well as the protein extract (input) separated by SDS-PAGE, with the membranes probed for V5 (FADD) and Flag (LRRK2). The transfected cells were treated with the indicated peptide (10 µM) for a total of 48 hr prior to collection. […] To minimize the use of primary mouse cortical neuron cultures, FARMS was used in subsequent experiments to examine the potential neuroprotective effects of LRRK2-FADD disruption.
Assessment of LRRK2-FADD interaction. Co-immunoprecipitation was undertaken to determine the effects of the stapled peptides on the LRRK2-FADD PPI, as previously described. Briefly, 10cm plates of HEK293T cells transiently expressing Flag-WT or mutant LRRK2 and V5-FADD (at a 3:1 ratio), and treated with different concentrations of FARM peptides (as indicated in the Figure legends), were washed in PBS and lysed in co-IP buffer (20mM HEPES, pH7.4; 150 mM NaCl; 0.1% NP40; 2 mM EGTA; 2 mM MgCl2; 10% glycerol, pH 7.2; protease and phosphatase cocktail [Agilent Technologies]) for 30 min on ice followed by 15 strokes with a Dounce glass homogenizer, and centrifugation at 13000 rpm for 15 min to remove cellular debris. Following pre-clearing with IgG-coupled beads, 40 µl of washed anti-Flag resin (Sigma-Aldrich) per mg of protein was added and the samples incubated under rotation overnight at 4°C. The following morning, the beads were centrifuged and washed a total of 5X with coIP buffer, before elution in 2X SDS sample buffer at 95°C for 10 min. The eluate (and input) was separated by SDS-PAGE and membranes probed with anti-Flag (LRRK2) and V5 (FADD).

R1441C-LRRK2 = molecular target: T2, R1441C-LRRK2 (Homo sapiens, UniProt Q5S007, R1441C); test: LRRK2 kinase function in HEK293T cells over-expressing R1441C-LRRK2, endogenous Rab10 (western blot); assay type: cell-based; settings: increasing doses of peptide
T2 construct: expressed in transfected cells; host or cells: HEK293T
T2 sequence (Q5S007 whole entry R1441C): as the sequence (Q5S007 whole entry G2019S) above, with R1441C, S2019G counted along it
Description: Assessment of LRRK2 kinase function. To determine whether peptides targeting the LRRK2-FADD PPI could also alter kinase function, LRRK2 activity was assessed in a cellular setting, through the phosphorylation of an endogenous substrate (pT73-Rab10), as well as auto-phosphorylation (pS1292-LRRK2). […] Parallel cultures were transfected with only WT or R1441C-LRRK2; and endogenous levels of phosphorylated RablO were assessed. Following 72hr of total expression, the cells were washed in cold PBS and collected. Cell lysis was performed using the following buffer: 50mM Tris HCl, pH 7.5; 1mM EGTA; 0.27 M sucrose; 1% Triton X-100; supplemented with protease and phosphatase inhibitor cocktails, and cell extracts stored at -80°C until use. The extracts were separated by SDS-PAGE and proteins transferred to nitrocellulose membranes, which were probed for total/pS1292-LRRK2, total/pT73-Rab10, or β-actin. For quantification, the band intensities for phosphorylated Rab 10 or LRRK2 were normalized to total expression of the respective protein.

FARM5: FAM-labeled hydrocarbon-stapled FADD Armadillo domain peptide; mass fits SEQ ID NO. 6 KVADLVQEVQQAXDLQXRSK ({FAM-PEG3′}-KVADLVQEVQQA[S5]DLQ[S5]RSK-NH2; staple 13-17; also: FAM label, optionally 5(6)FAM-PEG3 on N-terminal lysine) [FAM-labeled hydrocarbon-stapled FADD Armadillo domain peptide; 6 …XDLQXRSK]
amount of FADD that co-purified with G2019S-LRRK2 (LRRK2-FADD interaction) ([1]; 10 µM, 48 hr, normalized to immunoprecipitated Flag-LRRK2, listed as FARMS): greatest, and most consistent, reduction; also recorded: reduced the interaction between LRRK2 and FADD | dose-dependency of the disruption of the LRRK2-FADD PPI ([1]; 0.1 to 10 µM, 24hr): progressive reduction in the LRRK2-FADD PPI with increasing doses | phosphorylation of endogenous Rab10 (pT73) by R1441C-LRRK2 (R1441C-LRRK2): un-affected
